Source: patent US20230265215A1 (OMEROS, published 2023)

Legend:
Assay in all cases: solid phase ELISA, against human MASP-2 as reference
CFD = biological target: T1, CFD (human, UniProt P00746 26-253, limits assumed)
T1 construct: Species read from 'Recombinant human MASP-2 or C1r, C1s, CFD, MASP-1 and MASP-3'; also called factor D; complement factor D
Source text: (§1) The apparent dissociation constant (KD) was estimated by nonlinear regression using a 4-parameter logistic model.
(§2) Fold selectivity calculated as KD(related serine protease)/mean KD(MASP-2).

C1s = biological target: T2, C1s (human, UniProt P09871 16-688, limits assumed)
T2 construct: Species read from 'Recombinant human MASP-2 or C1r, C1s, CFD, MASP-1 and MASP-3'
T2 sequence (looked up): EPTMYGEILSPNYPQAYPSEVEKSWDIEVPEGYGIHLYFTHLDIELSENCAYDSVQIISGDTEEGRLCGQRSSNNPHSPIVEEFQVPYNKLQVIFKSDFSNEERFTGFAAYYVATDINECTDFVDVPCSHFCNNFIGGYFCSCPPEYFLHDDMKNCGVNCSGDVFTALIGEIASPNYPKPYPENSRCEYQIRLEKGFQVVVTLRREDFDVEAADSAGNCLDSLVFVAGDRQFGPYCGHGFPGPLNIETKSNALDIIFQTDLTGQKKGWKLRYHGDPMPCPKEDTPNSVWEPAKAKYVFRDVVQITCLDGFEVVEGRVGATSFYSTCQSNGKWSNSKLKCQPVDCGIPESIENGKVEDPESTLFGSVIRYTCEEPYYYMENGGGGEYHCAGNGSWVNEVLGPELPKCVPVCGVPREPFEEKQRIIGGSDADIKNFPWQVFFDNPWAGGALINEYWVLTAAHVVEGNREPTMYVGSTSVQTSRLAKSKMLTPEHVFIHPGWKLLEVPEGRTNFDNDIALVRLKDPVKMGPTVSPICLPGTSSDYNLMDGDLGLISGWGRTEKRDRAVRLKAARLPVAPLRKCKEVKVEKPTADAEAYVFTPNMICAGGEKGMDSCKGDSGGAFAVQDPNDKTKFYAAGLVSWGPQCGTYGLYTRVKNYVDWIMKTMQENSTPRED
Source text: as §1, §2

C1r = biological target: T3, C1r (human, UniProt P00736 18-705, limits assumed)
T3 construct: Species read from 'Recombinant human MASP-2 or C1r, C1s, CFD, MASP-1 and MASP-3'
T3 sequence (looked up): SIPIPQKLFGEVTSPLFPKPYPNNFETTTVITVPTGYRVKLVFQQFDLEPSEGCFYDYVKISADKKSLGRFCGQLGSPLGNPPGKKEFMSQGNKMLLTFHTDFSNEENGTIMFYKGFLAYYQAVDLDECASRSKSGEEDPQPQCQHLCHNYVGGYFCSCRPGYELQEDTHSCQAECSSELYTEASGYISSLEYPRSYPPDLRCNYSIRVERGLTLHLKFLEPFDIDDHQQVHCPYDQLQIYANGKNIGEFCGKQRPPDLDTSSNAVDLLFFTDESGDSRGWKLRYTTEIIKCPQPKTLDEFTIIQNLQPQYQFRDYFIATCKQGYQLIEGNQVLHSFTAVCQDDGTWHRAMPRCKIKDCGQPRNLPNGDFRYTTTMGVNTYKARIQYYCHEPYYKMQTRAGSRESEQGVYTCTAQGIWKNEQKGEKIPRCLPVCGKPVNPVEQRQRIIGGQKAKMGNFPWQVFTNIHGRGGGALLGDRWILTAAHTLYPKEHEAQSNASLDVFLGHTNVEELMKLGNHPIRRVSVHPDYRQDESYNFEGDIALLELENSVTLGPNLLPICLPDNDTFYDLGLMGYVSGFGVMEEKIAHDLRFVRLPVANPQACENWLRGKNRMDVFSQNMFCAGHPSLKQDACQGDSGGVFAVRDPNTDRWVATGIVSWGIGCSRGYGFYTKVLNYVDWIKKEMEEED
Source text: as §1, §2

MASP-3 = biological target: T4, MASP-3 (human, UniProt P48740-2 20-728, limits assumed)
T4 construct: Species read from 'Recombinant human MASP-2 or C1r, C1s, CFD, MASP-1 and MASP-3'
T4 sequence (looked up): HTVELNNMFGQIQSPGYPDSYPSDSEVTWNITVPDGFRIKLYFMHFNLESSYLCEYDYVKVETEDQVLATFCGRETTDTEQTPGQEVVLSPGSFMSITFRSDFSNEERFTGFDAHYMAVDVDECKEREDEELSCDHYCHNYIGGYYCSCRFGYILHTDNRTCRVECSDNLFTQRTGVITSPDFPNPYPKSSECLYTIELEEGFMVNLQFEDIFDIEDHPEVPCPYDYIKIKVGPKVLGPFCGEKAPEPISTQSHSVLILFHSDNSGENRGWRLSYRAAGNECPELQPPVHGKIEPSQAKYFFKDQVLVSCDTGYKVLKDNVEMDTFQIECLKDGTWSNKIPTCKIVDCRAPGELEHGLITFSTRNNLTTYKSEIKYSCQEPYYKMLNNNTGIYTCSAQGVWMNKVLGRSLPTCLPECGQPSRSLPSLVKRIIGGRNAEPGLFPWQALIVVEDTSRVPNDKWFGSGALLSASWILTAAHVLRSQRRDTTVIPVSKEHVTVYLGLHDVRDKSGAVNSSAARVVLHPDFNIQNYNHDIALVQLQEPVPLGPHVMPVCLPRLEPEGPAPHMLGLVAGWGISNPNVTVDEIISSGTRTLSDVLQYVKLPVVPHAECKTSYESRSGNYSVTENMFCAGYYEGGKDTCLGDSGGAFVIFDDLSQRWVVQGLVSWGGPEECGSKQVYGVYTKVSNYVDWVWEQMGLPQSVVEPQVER
Source text: as §1, §2

Measured: Fold selectivity (KD related serine protease / mean KD MASP-2)

T1 sequence (P00746 26-253 limits assumed): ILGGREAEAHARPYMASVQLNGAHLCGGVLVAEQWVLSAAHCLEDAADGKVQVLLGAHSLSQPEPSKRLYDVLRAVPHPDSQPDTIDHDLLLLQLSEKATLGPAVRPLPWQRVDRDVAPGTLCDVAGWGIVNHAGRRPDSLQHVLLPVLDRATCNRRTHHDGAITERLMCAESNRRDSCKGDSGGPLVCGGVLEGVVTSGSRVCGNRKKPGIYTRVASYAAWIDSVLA

B1: mAb OMS858 (humanized anti-MASP-2 antibody) (antibody, V domains shown)
VH: QVQLVQSGAEVKKPGASVKVSCKASGYTFTNHHMHWLRQAPGQGLEWIGDIDASDSETHYIEKFKDRATLTIDKSSSTAYMELSSLRSEDTAVYYCARGDITTTLRYFDVWGQGTLVTVSS
VL: DIQLTQSPSSLSASVGDRVTITCSASSSVRYMYWYQQKPGKAPKLLIYDTSNLASGVPSRFSGSGSGTDNTLTISSLQPEDFATYYCQQWSSYPLTFGQGTKVEIKR
notes: also called antibody OMS858; biotinylated OMS858
> 2000 fold: CFD | C1s | C1r | MASP-3
